tested on: Escherichia coli TOP10; experiment: shrunken log2 fold change of peptide-encoding DNA abundance (4.5 h post-induction vs induction); higher = less antimicrobial activity (less host growth inhibition); details: time post-induction: 4.5 h; library: site-saturation at positions 5, 18, 19, 20
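Also: peptides expressed intracellularly from a pBAD plasmid library in pooled LB shake-flask culture, induced with 0.3% L-arabinose, DNA abundance read by NGS, three biological replicates, DESeq2 with apeglm shrinkage.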

Sequence	shrunken log2 fold change
RRIRYRPPRLPRPRPRPAPSPRP	-0.0165
RRIRVRPPRLPRPRPRPLTIPRP	-0.329
RRIRIRPPRLPRPRPRPEWRPRP	0.257
RRIRSRPPRLPRPRPRPWDPPRP	0.0317
RRIRARPPRLPRPRPRPSEQPRP	0.248
RRIRLRPPRLPRPRPRPGDHPRP	-0.202
RRIRQRPPRLPRPRPRPFAKPRP	-0.0663
RRIRYRPPRLPRPRPRPDRGPRP	-0.213
RRIRCRPPRLPRPRPRPNQNPRP	-0.437
RRIRQRPPRLPRPRPRPFFNPRP	-0.438
RRIRDRPPRLPRPRPRPSCCPRP	1.57
RRIRTRPPRLPRPRPRPSGSPRP	0.204
RRIRDRPPRLPRPRPRPCIMPRP	0.0282
RRIRARPPRLPRPRPRPMTCPRP	-0.29
RRIRSRPPRLPRPRPRPIRNPRP	-0.379
RRIRARPPRLPRPRPRPITVPRP	-0.201
RRIRQRPPRLPRPRPRPDVNPRP	-0.142
RRIRTRPPRLPRPRPRPLWCPRP	-0.0967
RRIRVRPPRLPRPRPRPCIQPRP	-0.00992
RRIRSRPPRLPRPRPRPLPNPRP	-0.215
RRIRNRPPRLPRPRPRPDIEPRP	0.0309
RRIRERPPRLPRPRPRPYHAPRP	0.00489
RRIRCRPPRLPRPRPRPLLEPRP	0.234
RRIRFRPPRLPRPRPRPHANPRP	-0.16
RRIRRRPPRLPRPRPRPDYDPRP	-0.0449

Sequence	shrunken log2 fold change
RRIRERPPRLPRPRPRPLAYPRP	-0.203
RRIRPRPPRLPRPRPRPVAKPRP	0.236
RRIRFRPPRLPRPRPRPAFAPRP	0.33
RRIRKRPPRLPRPRPRPQYWPRP	0.152
RRIRVRPPRLPRPRPRPTTIPRP	-0.0865
RRIRARPPRLPRPRPRPLGNPRP	0.0331
RRIRERPPRLPRPRPRPLHLPRP	-0.0385
RRIRCRPPRLPRPRPRPMPHPRP	-0.0714
RRIRERPPRLPRPRPRPRWPPRP	0.486
RRIRERPPRLPRPRPRPSMEPRP	-0.14
RRIRYRPPRLPRPRPRPRQSPRP	-0.0113
RRIRNRPPRLPRPRPRPTAPPRP	0.517
RRIRPRPPRLPRPRPRPWGSPRP	0.216
RRIRARPPRLPRPRPRPPATPRP	1.63
RRIRWRPPRLPRPRPRPYYHPRP	-0.306
RRIRVRPPRLPRPRPRPKTSPRP	-0.128
RRIRTRPPRLPRPRPRPASEPRP	-0.0873
RRIRERPPRLPRPRPRPQLLPRP	-0.324
RRIRFRPPRLPRPRPRPHIQPRP	-0.594
RRIRTRPPRLPRPRPRPEPYPRP	0.0261
RRIRLRPPRLPRPRPRPLNDPRP	-0.0903
RRIRVRPPRLPRPRPRPYWFPRP	-0.396
RRIRIRPPRLPRPRPRPGMLPRP	0.0213
RRIRLRPPRLPRPRPRPPTMPRP	0.266
RRIRNRPPRLPRPRPRPVCCPRP	-0.146

Sequence	shrunken log2 fold change
RRIRWRPPRLPRPRPRPQFFPRP	-0.134
RRIRQRPPRLPRPRPRPKSWPRP	0.19
RRIRYRPPRLPRPRPRPDPRPRP	-0.0317
RRIRKRPPRLPRPRPRPKGEPRP	0.201
RRIRPRPPRLPRPRPRPCLMPRP	-0.393
RRIRRRPPRLPRPRPRPPKMPRP	0.286
RRIRDRPPRLPRPRPRPLKSPRP	0.00491
RRIRWRPPRLPRPRPRPILMPRP	-0.286
RRIRPRPPRLPRPRPRPYCDPRP	-0.907
RRIRQRPPRLPRPRPRPIYHPRP	-0.179
RRIRVRPPRLPRPRPRPGNDPRP	-0.0387
RRIRHRPPRLPRPRPRPGKLPRP	0.169
RRIRMRPPRLPRPRPRPMYTPRP	-0.71
RRIRARPPRLPRPRPRPAWDPRP	0.858
RRIRGRPPRLPRPRPRPQGSPRP	-0.0808
RRIRDRPPRLPRPRPRPYELPRP	-0.118
RRIRIRPPRLPRPRPRPRHHPRP	-0.408
RRIRFRPPRLPRPRPRPKFVPRP	-0.0222
RRIRRRPPRLPRPRPRPRSMPRP	0.468
RRIRDRPPRLPRPRPRPCSVPRP	-0.0368
RRIRERPPRLPRPRPRPDPAPRP	2.64
RRIRWRPPRLPRPRPRPLRTPRP	1.39
RRIRARPPRLPRPRPRPKEKPRP	0.0797
RRIRMRPPRLPRPRPRPHEMPRP	0.0891
RRIRWRPPRLPRPRPRPLRDPRP	0.655
